Data from the supplement of paper PMC9112550, “Optimization of the antimicrobial peptide Bac7 by deep mutational scanning” (BMC Biology, 2022).

Test system: Escherichia coli TOP10
Experiment: shrunken log2 fold change of peptide-encoding DNA abundance (4.5 h post-induction vs induction); higher = less antimicrobial activity (less host growth inhibition)
Conditions: time post-induction: 4.5 h; library: site-saturation at positions 5, 18, 19, 20
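Further: peptides expressed intracellularly from a pBAD plasmid library in pooled LB shake-flask culture, induced with 0.3% L-arabinose, DNA abundance read by NGS, three biological replicates, DESeq2 with apeglm shrinkage.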

Sequence	shrunken log2 fold change
RRIRQRPPRLPRPRPRPDVMPRP	0.0589
RRIRQRPPRLPRPRPRPDYDPRP	0.003
RRIRQRPPRLPRPRPRPEAPPRP	0.6
RRIRQRPPRLPRPRPRPEDWPRP	-0.106
RRIRQRPPRLPRPRPRPEEEPRP	0.00797
RRIRQRPPRLPRPRPRPEERPRP	0.104
RRIRQRPPRLPRPRPRPEEYPRP	0.0748
RRIRQRPPRLPRPRPRPEFAPRP	0.482
RRIRQRPPRLPRPRPRPEFEPRP	-0.0193
RRIRQRPPRLPRPRPRPEFPPRP	-0.0498
RRIRQRPPRLPRPRPRPEIKPRP	-0.342
RRIRQRPPRLPRPRPRPEIPPRP	-0.0704
RRIRQRPPRLPRPRPRPEKKPRP	-0.0138
RRIRQRPPRLPRPRPRPELKPRP	0.0791
RRIRQRPPRLPRPRPRPEPSPRP	0.102
RRIRQRPPRLPRPRPRPEQFPRP	0.0588
RRIRQRPPRLPRPRPRPEQIPRP	-0.0247
RRIRQRPPRLPRPRPRPEQSPRP	0.142
RRIRQRPPRLPRPRPRPERRPRP	0.0099
RRIRQRPPRLPRPRPRPESDPRP	0.319
RRIRQRPPRLPRPRPRPESHPRP	-0.159
RRIRQRPPRLPRPRPRPESVPRP	0.00473
RRIRQRPPRLPRPRPRPETRPRP	-0.0113
RRIRQRPPRLPRPRPRPEVWPRP	0.552
RRIRQRPPRLPRPRPRPEWCPRP	-0.0929

Sequence	shrunken log2 fold change
RRIRQRPPRLPRPRPRPFANPRP	0.0297
RRIRQRPPRLPRPRPRPFAYPRP	-0.0651
RRIRQRPPRLPRPRPRPFCLPRP	-0.336
RRIRQRPPRLPRPRPRPFCTPRP	-0.246
RRIRQRPPRLPRPRPRPFELPRP	-0.113
RRIRQRPPRLPRPRPRPFHDPRP	-0.336
RRIRQRPPRLPRPRPRPFHTPRP	-0.0573
RRIRQRPPRLPRPRPRPFIGPRP	-0.281
RRIRQRPPRLPRPRPRPFITPRP	-0.569
RRIRQRPPRLPRPRPRPFKRPRP	0.0391
RRIRQRPPRLPRPRPRPFLIPRP	-1.81
RRIRQRPPRLPRPRPRPFLRPRP	-0.0193
RRIRQRPPRLPRPRPRPFMAPRP	-0.61
RRIRQRPPRLPRPRPRPFPIPRP	-0.0231
RRIRQRPPRLPRPRPRPFPRPRP	-0.122
RRIRQRPPRLPRPRPRPFQGPRP	-0.0134
RRIRQRPPRLPRPRPRPFQIPRP	0.0399
RRIRQRPPRLPRPRPRPFQNPRP	-0.179
RRIRQRPPRLPRPRPRPFVIPRP	-0.131
RRIRQRPPRLPRPRPRPFWEPRP	-0.0669
RRIRQRPPRLPRPRPRPFWHPRP	-0.469
RRIRQRPPRLPRPRPRPFWRPRP	-0.044
RRIRQRPPRLPRPRPRPFYEPRP	-0.413
RRIRQRPPRLPRPRPRPFYMPRP	-1.52
RRIRQRPPRLPRPRPRPFYPPRP	0.0712

Sequence	shrunken log2 fold change
RRIRQRPPRLPRPRPRPFYQPRP	-0.104
RRIRQRPPRLPRPRPRPGAMPRP	0.155
RRIRQRPPRLPRPRPRPGAYPRP	-0.506
RRIRQRPPRLPRPRPRPGDFPRP	-0.179
RRIRQRPPRLPRPRPRPGDGPRP	0.415
RRIRQRPPRLPRPRPRPGDLPRP	0.01
RRIRQRPPRLPRPRPRPGEKPRP	0.139
RRIRQRPPRLPRPRPRPGFMPRP	-0.176
RRIRQRPPRLPRPRPRPGGSPRP	-0.141
RRIRQRPPRLPRPRPRPGHDPRP	-0.112
RRIRQRPPRLPRPRPRPGHMPRP	0.0335
RRIRQRPPRLPRPRPRPGKNPRP	-0.294
RRIRQRPPRLPRPRPRPGKPPRP	0.12
RRIRQRPPRLPRPRPRPGLDPRP	0.255
RRIRQRPPRLPRPRPRPGLGPRP	0.492
RRIRQRPPRLPRPRPRPGLVPRP	0.18
RRIRQRPPRLPRPRPRPGNGPRP	0.0197
RRIRQRPPRLPRPRPRPGNNPRP	-0.54
RRIRQRPPRLPRPRPRPGPMPRP	0.261
RRIRQRPPRLPRPRPRPGPYPRP	-0.0528
RRIRQRPPRLPRPRPRPGQWPRP	0.00718
RRIRQRPPRLPRPRPRPGRFPRP	0.363
RRIRQRPPRLPRPRPRPGRHPRP	0.0349
RRIRQRPPRLPRPRPRPGSNPRP	0.127
RRIRQRPPRLPRPRPRPGTGPRP	-0.121

Sequence	shrunken log2 fold change
RRIRQRPPRLPRPRPRPGYQPRP	-0.164
RRIRQRPPRLPRPRPRPHDAPRP	-0.0149
RRIRQRPPRLPRPRPRPHDMPRP	-0.364
RRIRQRPPRLPRPRPRPHDTPRP	-0.152
RRIRQRPPRLPRPRPRPHEWPRP	0.114
RRIRQRPPRLPRPRPRPHFKPRP	-0.332
RRIRQRPPRLPRPRPRPHFMPRP	-0.0158
RRIRQRPPRLPRPRPRPHFVPRP	-0.208
RRIRQRPPRLPRPRPRPHFYPRP	-0.229
RRIRQRPPRLPRPRPRPHGFPRP	-0.0134
RRIRQRPPRLPRPRPRPHGPPRP	-0.102
RRIRQRPPRLPRPRPRPHGYPRP	-0.138
RRIRQRPPRLPRPRPRPHHEPRP	0.0974
RRIRQRPPRLPRPRPRPHKEPRP	0.114
RRIRQRPPRLPRPRPRPHKTPRP	-0.146
RRIRQRPPRLPRPRPRPHMEPRP	-0.172
RRIRQRPPRLPRPRPRPHMFPRP	0.0177
RRIRQRPPRLPRPRPRPHMMPRP	-0.526
RRIRQRPPRLPRPRPRPHQHPRP	-0.309
RRIRQRPPRLPRPRPRPHRGPRP	0.0502
RRIRQRPPRLPRPRPRPHSAPRP	-0.0562
RRIRQRPPRLPRPRPRPHTAPRP	-0.926
RRIRQRPPRLPRPRPRPHVCPRP	-0.0223
RRIRQRPPRLPRPRPRPHVHPRP	-0.124
RRIRQRPPRLPRPRPRPHWDPRP	-0.224

Sequence	shrunken log2 fold change
RRIRQRPPRLPRPRPRPHWFPRP	0.0358
RRIRQRPPRLPRPRPRPHWVPRP	0.0288
RRIRQRPPRLPRPRPRPHWWPRP	0.38
RRIRQRPPRLPRPRPRPIAEPRP	-0.103
RRIRQRPPRLPRPRPRPIATPRP	-0.0607
RRIRQRPPRLPRPRPRPICTPRP	-0.0531
RRIRQRPPRLPRPRPRPIDKPRP	0.0866
RRIRQRPPRLPRPRPRPIEEPRP	-0.00208
RRIRQRPPRLPRPRPRPIEFPRP	-1.79
RRIRQRPPRLPRPRPRPIFGPRP	-0.00652
RRIRQRPPRLPRPRPRPIGYPRP	-0.0242
RRIRQRPPRLPRPRPRPIHDPRP	0.0242
RRIRQRPPRLPRPRPRPIHKPRP	-0.651
RRIRQRPPRLPRPRPRPIIQPRP	-0.248
RRIRQRPPRLPRPRPRPIKLPRP	-0.0569
RRIRQRPPRLPRPRPRPILLPRP	-0.0814
RRIRQRPPRLPRPRPRPILTPRP	-0.955
RRIRQRPPRLPRPRPRPINSPRP	-0.413
RRIRQRPPRLPRPRPRPIPGPRP	-0.309
RRIRQRPPRLPRPRPRPIPTPRP	-0.0272
RRIRQRPPRLPRPRPRPIPWPRP	0.0351
RRIRQRPPRLPRPRPRPIQDPRP	0.0208
RRIRQRPPRLPRPRPRPIQMPRP	-0.0176
RRIRQRPPRLPRPRPRPIRIPRP	0.0373
RRIRQRPPRLPRPRPRPIRSPRP	-0.0132

Sequence	shrunken log2 fold change
RRIRQRPPRLPRPRPRPITWPRP	0.129
RRIRQRPPRLPRPRPRPIWSPRP	-0.514
RRIRQRPPRLPRPRPRPIYQPRP	-0.647
RRIRQRPPRLPRPRPRPIYVPRP	0.0693
RRIRQRPPRLPRPRPRPKCCPRP	-0.113
RRIRQRPPRLPRPRPRPKFTPRP	0.025
RRIRQRPPRLPRPRPRPKGQPRP	-0.0264
RRIRQRPPRLPRPRPRPKHEPRP	0.164
RRIRQRPPRLPRPRPRPKHLPRP	0.0736
RRIRQRPPRLPRPRPRPKIKPRP	-0.273
RRIRQRPPRLPRPRPRPKKMPRP	-0.108
RRIRQRPPRLPRPRPRPKKYPRP	-0.0221
RRIRQRPPRLPRPRPRPKLLPRP	-0.153
RRIRQRPPRLPRPRPRPKMHPRP	0.127
RRIRQRPPRLPRPRPRPKMQPRP	-0.134
RRIRQRPPRLPRPRPRPKNTPRP	-0.394
RRIRQRPPRLPRPRPRPKQWPRP	0.293
RRIRQRPPRLPRPRPRPKSVPRP	-0.0026
RRIRQRPPRLPRPRPRPKTGPRP	-0.151
RRIRQRPPRLPRPRPRPKVVPRP	-0.0141
RRIRQRPPRLPRPRPRPKVWPRP	0.153
RRIRQRPPRLPRPRPRPKYSPRP	-0.0125
RRIRQRPPRLPRPRPRPLALPRP	0.318
RRIRQRPPRLPRPRPRPLAWPRP	0.15
RRIRQRPPRLPRPRPRPLCGPRP	0.0478
